Data reported in IntAct's records for PubMed 35512704.

B1: Speckle-type POZ protein (Homo sapiens), O43791 (parent)
chain: MSRVPSPPPPAEMSSGPVAESWCYTQIKVVKFSYMWTINNFSFCREEMGEVIKSSTFSSGANDKLKWCLRVNPKGLDEESKDYLSLYLLLVSCPKSEVRAKFKFSILNAKGEETKAMESQRAYRFVQGKDWGFKKFIRRDFLLDEANGLLPDDKLTLFCEVSVVQDSVNISGQNTMNMVKVPECRLADELGGLWENSRFTDCCLCVAGQEFQAHKAILAARSPVFSAMFEHEMEESKKNRVEINDVEPEVFKEMMCFIYTGKAPNLDKMADDLLAAADKYALERLKVMCEDALCSNLSVENAAEILILADLHSADQLKTQAVDFINYHASDVLETSGWKSMVVSHPHLVAEAYRSLASAQCPFLGPPRKRLKQS
partner: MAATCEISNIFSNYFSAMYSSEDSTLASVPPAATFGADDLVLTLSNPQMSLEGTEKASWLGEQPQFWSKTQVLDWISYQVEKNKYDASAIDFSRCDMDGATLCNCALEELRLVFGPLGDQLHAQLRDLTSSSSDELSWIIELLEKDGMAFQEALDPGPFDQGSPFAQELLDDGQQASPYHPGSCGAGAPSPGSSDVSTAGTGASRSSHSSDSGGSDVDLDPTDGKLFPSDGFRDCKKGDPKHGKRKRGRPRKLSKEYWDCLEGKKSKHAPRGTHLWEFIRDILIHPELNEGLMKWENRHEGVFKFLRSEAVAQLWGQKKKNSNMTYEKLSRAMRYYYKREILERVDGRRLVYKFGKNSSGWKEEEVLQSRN
B2: Speckle-type POZ protein (Homo sapiens), O43791 (parent)
chain: B1 chain
partner: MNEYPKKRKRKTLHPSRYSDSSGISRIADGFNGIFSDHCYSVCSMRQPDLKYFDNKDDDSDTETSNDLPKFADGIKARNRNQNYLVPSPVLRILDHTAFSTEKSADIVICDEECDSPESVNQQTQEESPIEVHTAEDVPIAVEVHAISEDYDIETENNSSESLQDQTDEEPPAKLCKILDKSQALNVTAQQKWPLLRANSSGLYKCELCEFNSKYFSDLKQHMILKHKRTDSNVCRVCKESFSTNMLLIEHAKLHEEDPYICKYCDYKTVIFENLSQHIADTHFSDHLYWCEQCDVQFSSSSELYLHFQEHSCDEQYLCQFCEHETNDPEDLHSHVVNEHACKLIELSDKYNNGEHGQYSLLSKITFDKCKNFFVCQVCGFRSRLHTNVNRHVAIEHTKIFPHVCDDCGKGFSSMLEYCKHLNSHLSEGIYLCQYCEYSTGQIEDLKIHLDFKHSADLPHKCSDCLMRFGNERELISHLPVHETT
B3: Speckle-type POZ protein (Homo sapiens), O43791 (parent)
chain: B1 chain
partner: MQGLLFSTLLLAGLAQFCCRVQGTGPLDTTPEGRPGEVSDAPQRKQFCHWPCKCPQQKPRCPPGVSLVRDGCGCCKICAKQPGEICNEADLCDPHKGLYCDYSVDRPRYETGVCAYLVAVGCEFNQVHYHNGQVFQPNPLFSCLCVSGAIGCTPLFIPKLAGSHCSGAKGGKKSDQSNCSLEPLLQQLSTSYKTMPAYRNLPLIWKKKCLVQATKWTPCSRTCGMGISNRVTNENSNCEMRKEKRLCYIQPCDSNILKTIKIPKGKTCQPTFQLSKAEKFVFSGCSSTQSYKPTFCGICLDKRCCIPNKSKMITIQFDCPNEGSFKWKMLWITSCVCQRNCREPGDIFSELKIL
B4: Speckle-type POZ protein (Homo sapiens), O43791 (parent)
chain: B1 chain
partner: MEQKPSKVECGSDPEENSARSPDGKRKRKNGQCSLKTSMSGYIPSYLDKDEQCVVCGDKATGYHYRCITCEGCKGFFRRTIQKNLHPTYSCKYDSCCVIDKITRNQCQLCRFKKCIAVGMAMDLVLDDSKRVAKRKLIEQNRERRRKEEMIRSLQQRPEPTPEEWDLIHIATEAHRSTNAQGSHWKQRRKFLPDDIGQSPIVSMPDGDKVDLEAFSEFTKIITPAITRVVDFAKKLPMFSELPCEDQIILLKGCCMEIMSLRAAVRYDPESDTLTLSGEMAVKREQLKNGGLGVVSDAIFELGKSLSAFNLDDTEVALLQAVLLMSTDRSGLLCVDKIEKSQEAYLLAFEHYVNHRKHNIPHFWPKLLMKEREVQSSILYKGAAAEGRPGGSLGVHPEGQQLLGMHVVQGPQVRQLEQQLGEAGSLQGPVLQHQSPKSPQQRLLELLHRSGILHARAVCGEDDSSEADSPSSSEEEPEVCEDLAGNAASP
B5: Speckle-type POZ protein (Homo sapiens), O43791 (parent)
chain: B1 chain
partner: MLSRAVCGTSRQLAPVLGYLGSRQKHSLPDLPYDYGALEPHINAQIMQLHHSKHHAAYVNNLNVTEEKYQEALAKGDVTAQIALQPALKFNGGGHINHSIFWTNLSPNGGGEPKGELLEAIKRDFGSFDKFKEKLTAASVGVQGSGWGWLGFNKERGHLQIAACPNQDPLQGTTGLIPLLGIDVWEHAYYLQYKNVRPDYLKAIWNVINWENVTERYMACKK
B6: Speckle-type POZ protein (Homo sapiens), O43791 (parent)
chain: B1 chain
partner: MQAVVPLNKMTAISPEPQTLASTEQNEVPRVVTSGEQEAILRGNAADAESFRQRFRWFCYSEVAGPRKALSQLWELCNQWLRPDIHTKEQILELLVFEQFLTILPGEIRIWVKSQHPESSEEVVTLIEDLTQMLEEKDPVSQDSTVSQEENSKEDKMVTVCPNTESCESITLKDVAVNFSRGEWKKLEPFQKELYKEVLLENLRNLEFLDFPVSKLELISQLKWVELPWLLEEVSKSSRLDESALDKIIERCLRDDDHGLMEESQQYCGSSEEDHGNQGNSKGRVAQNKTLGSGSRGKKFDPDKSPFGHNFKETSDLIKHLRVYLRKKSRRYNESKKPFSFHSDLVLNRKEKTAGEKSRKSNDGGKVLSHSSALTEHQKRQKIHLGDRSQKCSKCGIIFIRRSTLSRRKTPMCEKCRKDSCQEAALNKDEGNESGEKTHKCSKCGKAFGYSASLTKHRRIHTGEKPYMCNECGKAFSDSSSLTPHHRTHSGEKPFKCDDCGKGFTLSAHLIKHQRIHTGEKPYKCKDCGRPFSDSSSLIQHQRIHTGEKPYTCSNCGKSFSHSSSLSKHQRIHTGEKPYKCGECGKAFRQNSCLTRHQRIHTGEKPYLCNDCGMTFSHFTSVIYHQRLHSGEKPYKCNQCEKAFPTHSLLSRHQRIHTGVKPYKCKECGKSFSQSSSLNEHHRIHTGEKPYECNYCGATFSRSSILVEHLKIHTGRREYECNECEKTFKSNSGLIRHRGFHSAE

Variants of: B1
Details: with elf3_human ELF3, P78545

| effect of a mutation on the interaction | Variant |
| --- | --- |
| with no effect | Y87C |

Variants of: B2
Details: with zn639_human ZNF639, Q9UID6

| effect of a mutation on the interaction | Variant |
| --- | --- |
| with no effect | F102C |

Variants of: B2
Details: with zn639_human ZNF639, Q9UID6
Remark: another data set of the same source

| effect of a mutation on the interaction | Variant |
| --- | --- |
| with no effect | F133V |

Variants of: B2
Details: with zn639_human ZNF639, Q9UID6
Remark: another data set of the same source

| effect of a mutation on the interaction | Variant |
| --- | --- |
| with no effect | F133L |

Variants of: B3
Details: with ccn6_human CCN6, O95389

| effect of a mutation on the interaction | Variant |
| --- | --- |
| with no effect | Y87C |

Variants of: B3
Details: with ccn6_human CCN6, O95389
Remark: another data set of the same source

| effect of a mutation on the interaction | Variant |
| --- | --- |
| with no effect | F133L |

Variants of: B3
Details: with ccn6_human CCN6, O95389
Remark: another data set of the same source

| effect of a mutation on the interaction | Variant |
| --- | --- |
| with no effect | F133V |

Variants of: B3
Details: with ccn6_human CCN6, O95389
Remark: another data set of the same source

| effect of a mutation on the interaction | Variant |
| --- | --- |
| with no effect | F102C |

Variants of: B4
Details: with tha_human THRA

| effect of a mutation on the interaction | Variant |
| --- | --- |
| with no effect | Y87C |

Variants of: B4
Details: with tha_human THRA
Remark: another data set of the same source

| effect of a mutation on the interaction | Variant |
| --- | --- |
| with no effect | F133L |

Variants of: B4
Details: with tha_human THRA
Remark: another data set of the same source

| effect of a mutation on the interaction | Variant |
| --- | --- |
| with no effect | F133V |

Variants of: B4
Details: with tha_human THRA
Remark: another data set of the same source

| effect of a mutation on the interaction | Variant |
| --- | --- |
| with no effect | F102C |

Variants of: B5
Details: with sodm_human SOD2, P04179

| effect of a mutation on the interaction | Variant |
| --- | --- |
| with no effect | Y87C |

Variants of: B5
Details: with sodm_human SOD2, P04179
Remark: another data set of the same source

| effect of a mutation on the interaction | Variant |
| --- | --- |
| with no effect | F133V |

Variants of: B5
Details: with sodm_human SOD2, P04179
Remark: another data set of the same source

| effect of a mutation on the interaction | Variant |
| --- | --- |
| with no effect | F133L |

Variants of: B5
Details: with sodm_human SOD2, P04179
Remark: another data set of the same source

| effect of a mutation on the interaction | Variant |
| --- | --- |
| with no effect | F102C |

Variants of: B6
Details: with zn483_human ZNF483, Q8TF39

| effect of a mutation on the interaction | Variant |
| --- | --- |
| with no effect | Y87C |
